{
  "source": "paper PMC4837182",
  "about": "“Plasmodium falciparum Hsp70-z, an Hsp110 homologue, exhibits independent chaperone activity and interacts with Hsp70-1 in a nucleotide-dependent fashion” (Cell Stress & Chaperones, 2016)",
  "binders": {"B1": {"name": "nucleotide binding domain of PfHsp70-1 (PfHsp70-1NBD) (domain or fragment)", "chain": "not shown", "modifications": "assayed without nucleotide or with ADP/ATP; N-terminal His6 tag from pQE30 left out. Locus PF3D7_0818900 (cytosolic PfHsp70-1, UniProt Q8IB24) is from memory, not given; NBD limits are"}},
  "key": {"[1]": {"molecular_target": "T1, recombinant Plasmodium falciparum Hsp70-z (PfHsp70-z) (Plasmodium falciparum)", "T1 construct": "also called PfHsp110c; PfHsp110; not shown: His6, N-terminal, kept", "experiment": "SPR; ProteOn XPR36, ligand amine-coupled to GLC chip, analyte 125-2000 nM at 50 μl/min, PBS-Tween with 20 mM EDTA pH 7.4, 25 °C, Langmuir fit; with 5 mM ATP", "details": "both partners purified"}, "[2]": {"molecular_target": "T1, recombinant Plasmodium falciparum …", "experiment": "SPR; ProteOn XPR36, ligand amine-coupled to GLC chip, analyte 125-2000 nM at 50 μl/min, PBS-Tween with 20 mM EDTA pH 7.4, 25 °C, Langmuir fit; with 5 mM ADP", "details": "both partners purified"}},
  "data": [
    {"binder": "B1", "values": [
      {"measurement": "Kd", "setting": "[1]", "result": 2.12, "unit": "nM"},
      {"measurement": "koff", "setting": "[1]", "result": "9.43e-06", "unit": "s⁻¹"},
      {"measurement": "kon", "setting": "[1]", "result": 4460, "unit": "M⁻¹ s⁻¹"},
      {"measurement": "Kd", "setting": "[2]", "result": 98.6, "unit": "nM"},
      {"measurement": "koff", "setting": "[2]", "result": 0.00026, "unit": "s⁻¹"},
      {"measurement": "kon", "setting": "[2]", "result": 2630, "unit": "M⁻¹ s⁻¹"}
    ]}
  ]
}
